Substitutions are numbered along the chain they refer to.
B1: 447 (protein)
chain: LDNGLARTPTMGWLHWERFMCNLDCQEEPDSCISEKLFMEMAERMVSEGWKDAGYEYLCIDDCWMAPQRDSEGRLQADPQRFPHGIRQLANYVHSKGLKLGIYADVGNKTCAGFPGSFGYYDIDAQTFADWGVDLLKFDGCYCDSLENLADGYKHMSLALNRTGRSIVYSCEWPLYMWPFQKPNYTEIRQYCNHWRNFADIDDSWKSIKSILDWTSRNQERIVDVAGPGGWNDPDMLVIGNFGLSWDQQVTQMALWAIMAAPWFMSNDLRHISPQAKALLQDKDVIAINQDPLGKQGYQLRKGDNFEVWERPLSGDAWAVAIINRQEIGGPRSYTIPVASLGKGVACNPACFITQLLPVKRQLGFYNWTSRLKSHINPTGTVLLQLENTMQMSLKDLL
modifications: Synthetic Polypeptide sequence of Variant No. 447 of mature Human GLA
B2: 448 (protein)
chain: B1 chain with W263L, R270Q
modifications: Synthetic Polypeptide sequence of Variant No. 448 of mature Human GLA
B3: 366 (protein)
chain: B1 chain with S47V, W263L
modifications: Synthetic Polypeptide sequence of Variant No. 366 of mature Human GLA
B4: 459 (protein)
chain: B1 chain with W263L, M390H
modifications: Synthetic Polypeptide sequence of Variant No. 459 of mature Human GLA
B5: 454 (protein)
chain: B1 chain with W263L, M390P
modifications: Synthetic Polypeptide sequence of Variant No. 454 of mature Human GLA
B6: 449 (protein)
chain: B1 chain with L255T, W263L
modifications: Synthetic Polypeptide sequence of Variant No. 449 of mature Human GLA
B7: 367 (protein)
chain: B1 chain with M39R, W263L
modifications: Synthetic Polypeptide sequence of Variant No. 367 of mature Human GLA
B8: 456 (protein)
chain: B1 chain with W263L, T389M
modifications: Synthetic Polypeptide sequence of Variant No. 456 of mature Human GLA
B9: 460 (protein)
chain: B1 chain with W263L, L386T
modifications: Synthetic Polypeptide sequence of Variant No. 460 of mature Human GLA
B10: 461 (protein)
chain: B1 chain with W263L, M392Q
modifications: Synthetic Polypeptide sequence of Variant No. 461 of mature Human GLA
B11: 453 (protein)
chain: B1 chain with W263L, R270L
modifications: Synthetic Polypeptide sequence of Variant No. 453 of mature Human GLA
B12: 452 (protein)
chain: B1 chain with W263L, H271R
modifications: Synthetic Polypeptide sequence of Variant No. 452 of mature Human GLA
B13: 457 (protein)
chain: B1 chain with W263L, M392A
modifications: Synthetic Polypeptide sequence of Variant No. 457 of mature Human GLA
B14: 451 (protein)
chain: B1 chain with M259V, W263L
modifications: Synthetic Polypeptide sequence of Variant No. 451 of mature Human GLA
B15: 450 (protein)
chain: B1 chain with I258M, W263L
modifications: Synthetic Polypeptide sequence of Variant No. 450 of mature Human GLA
B16: 455 (protein)
chain: B1 chain with W263L, M392D
modifications: Synthetic Polypeptide sequence of Variant No. 455 of mature Human GLA

Assays:
Format in all cases: biochemical
[1] = HTP-analysis of yeast culture supernatants, no challenge (MUGal hydrolysis); settings: activity of the variant/activity of Rd4BB (SEQ ID NO: 15)
How it was run: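 GLA variants expressed in yeast INVSc1, secreted into SD-Ura broth over 66-84 h at 30° C; clarified supernatants tested without challenge. Supernatant mixed with McIlvaine buffer pH 4.8 and 2 mM MUGal (citrate/KCl, pH 4.6), 37° C for 30-180 min, carbonate-quenched, fluorescence Ex 355/Em 448 nm.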

[2] = HTP-analysis of supernatants pretreated with base (MUGal hydrolysis); settings: activity of the variant/activity of Rd4BB (SEQ ID NO: 15); challenge at pH 9.65
How it was run: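 Fluorescence of released 4-MU (Ex 355 nm, Em 448 nm) after carbonate quench reports MUGal hydrolysis by GLA variants secreted from INVSc1 yeast. Before the acidic (pH 4.3-4.8) 30-180 min reaction at 37° C, supernatants had been pre-incubated at pH 7.0-9.7 for 1-18 h at 37° C.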

[3] = HTP-analysis of supernatants pretreated with acid (MUGal hydrolysis); settings: activity of the variant/activity of Rd4BB (SEQ ID NO: 15); challenge at pH 3.7
How it was run: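 Supernatants from INVSc1 yeast secreting GLA variants were challenged at 37° C. for 1-3 h in McIlvaine buffer at pH 3.3-4.3. Residual activity was then measured on 4 mM MUGal substrate stock at pH 4.8 with citrate buffer pH 4.3, over 30-180 min at 37° C. Reactions were quenched with sodium carbonate and read by fluorescence (Ex 355/Em 448 nm).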

| Molecule | Relative Activity of GLA Variants After No Challenge (NC) [1] | Relative Activity of GLA Variants After Challenge at pH 9.65 [2] | Relative Activity of GLA Variants After Challenge at pH 3.7 [3] |
| --- | --- | --- | --- |
| B1 | + (0.5 to 1.5 relative activity over Rd4BB (SEQ ID NO: 15)) | − (<0.5 relative activity over Rd4BB (SEQ ID NO: 15)) | − (<0.5 relative activity over Rd4BB (SEQ ID NO: 15)) |
| B2 | + (0.5 to 1.5 relative activity over Rd4BB (SEQ ID NO: 15)) | − (<0.5 relative activity over Rd4BB (SEQ ID NO: 15)) | − (<0.5 relative activity over Rd4BB (SEQ ID NO: 15)) |
| B3 | + (0.5 to 1.5 relative activity over Rd4BB (SEQ ID NO: 15)) | + (0.5 to 1.5 relative activity over Rd4BB (SEQ ID NO: 15)) | + (0.5 to 1.5 relative activity over Rd4BB (SEQ ID NO: 15)) |
| B4 | + (0.5 to 1.5 relative activity over Rd4BB (SEQ ID NO: 15)) | + (0.5 to 1.5 relative activity over Rd4BB (SEQ ID NO: 15)) | ++ (>1.5 to 2.5 relative activity over Rd4BB (SEQ ID NO: 15)) |
| B5 | + (0.5 to 1.5 relative activity over Rd4BB (SEQ ID NO: 15)) | + (0.5 to 1.5 relative activity over Rd4BB (SEQ ID NO: 15)) | ++ (>1.5 to 2.5 relative activity over Rd4BB (SEQ ID NO: 15)) |
| B6 | + (0.5 to 1.5 relative activity over Rd4BB (SEQ ID NO: 15)) | − (<0.5 relative activity over Rd4BB (SEQ ID NO: 15)) | ++ (>1.5 to 2.5 relative activity over Rd4BB (SEQ ID NO: 15)) |
| B7 | + (0.5 to 1.5 relative activity over Rd4BB (SEQ ID NO: 15)) | − (<0.5 relative activity over Rd4BB (SEQ ID NO: 15)) | + (0.5 to 1.5 relative activity over Rd4BB (SEQ ID NO: 15)) |
| B8 | + (0.5 to 1.5 relative activity over Rd4BB (SEQ ID NO: 15)) | + (0.5 to 1.5 relative activity over Rd4BB (SEQ ID NO: 15)) | + (0.5 to 1.5 relative activity over Rd4BB (SEQ ID NO: 15)) |
| B9 | + (0.5 to 1.5 relative activity over Rd4BB (SEQ ID NO: 15)) | + (0.5 to 1.5 relative activity over Rd4BB (SEQ ID NO: 15)) | + (0.5 to 1.5 relative activity over Rd4BB (SEQ ID NO: 15)) |
| B10 | + (0.5 to 1.5 relative activity over Rd4BB (SEQ ID NO: 15)) | + (0.5 to 1.5 relative activity over Rd4BB (SEQ ID NO: 15)) | + (0.5 to 1.5 relative activity over Rd4BB (SEQ ID NO: 15)) |
| B11 | + (0.5 to 1.5 relative activity over Rd4BB (SEQ ID NO: 15)) | − (<0.5 relative activity over Rd4BB (SEQ ID NO: 15)) | − (<0.5 relative activity over Rd4BB (SEQ ID NO: 15)) |
| B12 | + (0.5 to 1.5 relative activity over Rd4BB (SEQ ID NO: 15)) | + (0.5 to 1.5 relative activity over Rd4BB (SEQ ID NO: 15)) | ++ (>1.5 to 2.5 relative activity over Rd4BB (SEQ ID NO: 15)) |
| B13 | + (0.5 to 1.5 relative activity over Rd4BB (SEQ ID NO: 15)) | + (0.5 to 1.5 relative activity over Rd4BB (SEQ ID NO: 15)) | + (0.5 to 1.5 relative activity over Rd4BB (SEQ ID NO: 15)) |
| B14 | + (0.5 to 1.5 relative activity over Rd4BB (SEQ ID NO: 15)) | − (<0.5 relative activity over Rd4BB (SEQ ID NO: 15)) | ++ (>1.5 to 2.5 relative activity over Rd4BB (SEQ ID NO: 15)) |
| B15 | + (0.5 to 1.5 relative activity over Rd4BB (SEQ ID NO: 15)) | − (<0.5 relative activity over Rd4BB (SEQ ID NO: 15)) | ++ (>1.5 to 2.5 relative activity over Rd4BB (SEQ ID NO: 15)) |
| B16 | + (0.5 to 1.5 relative activity over Rd4BB (SEQ ID NO: 15)) | + (0.5 to 1.5 relative activity over Rd4BB (SEQ ID NO: 15)) | + (0.5 to 1.5 relative activity over Rd4BB (SEQ ID NO: 15)) |

— patent US11278600B2, “Human alpha-galactosidase variants” (Codexis, Inc., priority 2014, dated 2022)
